Tests used:
[1] = target: T1, human soluble αvβ5 protein (extracellular domains of human αv and β5 integrin subunits) (human, UniProt P06756 31-992; P18084 24-719); experiment: ELISA, purified hsαvβ5 coated at 2 µg/mL, anti-human IgG-HRP detection
T1 construct: also called biotin-αvβ5; hsαvβ5
Method: Purified hsαvβ5 protein was coated directly on a 96-well ELISA plate at 2 μg/mL, and H4/L2 antibody binding was detected using a horseradish peroxidase conjugated donkey anti-human IgG polyclonal antibody. In this format, the EC₅₀ of the H4/L2 antibody for αvβ5 was about 65 pM.

[2] = target: T2, human αvβ5 expressed on BaF3 cells (stably transfected with human αv and β5 subunits) (human, UniProt P06756 31-1048; P18084 24-799); experiment: FACS binding curves on αvβ5-BaF3 cells, 10,000 cells/experiment; mAb (bivalent IgG)
T2 construct: also called αvβ5-BaF3; BaF3-hu αvβ5
T2 sequence (P06756 31-1048 limits assumed, chain 1 of 2): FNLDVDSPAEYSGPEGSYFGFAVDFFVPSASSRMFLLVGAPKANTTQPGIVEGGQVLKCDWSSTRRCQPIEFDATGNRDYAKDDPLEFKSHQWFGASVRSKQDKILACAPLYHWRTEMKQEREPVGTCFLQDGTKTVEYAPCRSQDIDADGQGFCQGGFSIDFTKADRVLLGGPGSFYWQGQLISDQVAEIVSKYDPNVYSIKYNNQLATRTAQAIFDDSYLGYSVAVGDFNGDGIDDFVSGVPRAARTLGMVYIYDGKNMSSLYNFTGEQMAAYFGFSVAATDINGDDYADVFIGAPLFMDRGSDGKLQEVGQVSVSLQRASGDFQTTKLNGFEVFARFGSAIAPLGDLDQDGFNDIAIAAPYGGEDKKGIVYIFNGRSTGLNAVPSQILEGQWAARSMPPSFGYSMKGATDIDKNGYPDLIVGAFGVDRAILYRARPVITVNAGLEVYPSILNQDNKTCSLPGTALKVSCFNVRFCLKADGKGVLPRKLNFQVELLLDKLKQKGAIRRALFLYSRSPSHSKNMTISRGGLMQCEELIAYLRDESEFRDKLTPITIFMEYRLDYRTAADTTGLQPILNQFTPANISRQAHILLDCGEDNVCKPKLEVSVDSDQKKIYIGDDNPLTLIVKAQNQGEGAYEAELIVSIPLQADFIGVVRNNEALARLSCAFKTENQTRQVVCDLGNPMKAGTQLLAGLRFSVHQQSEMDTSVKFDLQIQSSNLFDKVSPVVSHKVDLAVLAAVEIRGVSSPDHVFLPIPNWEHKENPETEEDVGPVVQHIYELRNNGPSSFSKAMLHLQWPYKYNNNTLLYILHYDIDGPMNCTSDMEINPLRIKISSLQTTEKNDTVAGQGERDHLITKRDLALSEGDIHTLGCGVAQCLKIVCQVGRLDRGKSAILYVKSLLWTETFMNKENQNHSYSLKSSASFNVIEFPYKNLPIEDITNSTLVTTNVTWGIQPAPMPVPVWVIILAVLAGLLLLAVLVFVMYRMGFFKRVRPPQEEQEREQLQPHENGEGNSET
T2 sequence (P18084 24-799 limits assumed, chain 2 of 2): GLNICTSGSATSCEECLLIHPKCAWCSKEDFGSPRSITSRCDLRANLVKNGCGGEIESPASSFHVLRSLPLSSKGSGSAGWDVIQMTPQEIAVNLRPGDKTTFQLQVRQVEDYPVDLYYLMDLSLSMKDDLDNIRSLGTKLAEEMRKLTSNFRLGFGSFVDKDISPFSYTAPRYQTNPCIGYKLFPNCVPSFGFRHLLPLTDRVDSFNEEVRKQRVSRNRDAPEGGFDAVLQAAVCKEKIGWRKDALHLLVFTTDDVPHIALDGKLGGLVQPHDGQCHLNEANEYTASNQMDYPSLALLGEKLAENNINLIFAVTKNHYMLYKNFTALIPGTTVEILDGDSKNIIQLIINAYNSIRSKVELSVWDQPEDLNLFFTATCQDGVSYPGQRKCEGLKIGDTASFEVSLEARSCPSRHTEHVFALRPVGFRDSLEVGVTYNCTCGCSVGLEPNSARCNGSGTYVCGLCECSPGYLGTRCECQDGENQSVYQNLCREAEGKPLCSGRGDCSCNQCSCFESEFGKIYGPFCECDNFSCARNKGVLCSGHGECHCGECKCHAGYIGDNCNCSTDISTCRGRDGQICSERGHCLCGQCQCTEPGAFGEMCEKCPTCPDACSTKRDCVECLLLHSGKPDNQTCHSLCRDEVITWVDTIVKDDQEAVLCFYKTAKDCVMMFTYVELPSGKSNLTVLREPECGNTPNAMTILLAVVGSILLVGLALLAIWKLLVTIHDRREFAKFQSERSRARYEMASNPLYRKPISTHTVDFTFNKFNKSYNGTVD
Method: This experiment was carried out to confirm the affinity of ALULA-H4/L2-IgG4.P(S228P)/IgG1(N297Q) for cell surface expressed αvβ5 stably expressed on murine BaF3 cells. Binding curves were generated using a lower number of cells to ensure that antibody was not simply titrating the receptors on the cell.

[3] = target: T1, human soluble αvβ5 protein …; experiment: ALULA competition ELISA on soluble human αvβ5
Method: Competition ELISA: A 96-well microtiter plate was coated with 50 μl/well of 5 μg/mL soluble human αvβ5 protein at 4° C. overnight. The plate was washed with wash buffer (0.05% Tween-20 in PBS) four times in an automated plate washer. 300 μl/well of 1% BSA in PBS was added and incubated for 1 hr at 25° C. to block nonspecific binding. The plate was washed as above, and dilutions of humanized antibodies mixed with 1 nM murine ALULA in PBS containing 1% BSA, were added (50 μl/well). The plate was incubated for 1 hr at 25° C., washed, and then incubated for 40 minutes with 100 μl/well of […] goat anti-mouse antibody. Bound antibody was detected using 3,3′,5,5′-tetramethylbenzidine (TMB). Binding was indicated by the absorbency measured at 450 nm.
(§1) Based on the results described above in Example 4, four humanized ALULA constructs: VH2/VL2, VH4/VL0, VH4/VL2, and VH5/VL2, were selected for further testing. These VH/VL constructs were expressed as fusion proteins with the hybrid, aglycosylated IgG4.P (S228P)/IgG1 (N297Q) domain, and human kappa light chain domain, and purified from the conditioned medium of stably transfected CHO cells. Each humanized ALULA construct was assessed for binding using competition ELISA with murine ALULA and by FACS using human αvβ5-transfected BaF3 cells. Each humanized ALULA construct was also assessed for blocking binding/adhesion to vitronectin by ELISA or cell adhesion assays using BaF3 cells stably transfected with human or cynomolgous monkey αvβ5. The humanized ALULA constructs were compared to a chimeric form of ALULA comprising the murine heavy and light chain variable domains fused to human IgG1 heavy chain and human kappa light chain domains. The four humanized ALULA constructs behaved similarly in the assays, with H4/L2 generally having similar or slightly higher affinity/blocking potency than the other constructs (see, Table 3).

[4] = target: T1, human soluble αvβ5 protein …; experiment: αvβ5-vitronectin blocking ELISA
Method: Vitronectin Inhibition ELISA: 96-well microtiter plates were coated with 5 μg/ml purified human plasma vitronectin diluted in PBS (50 μl/well) at 4° C. overnight. After the coating solution was removed, the plates were blocked with 300 μl/well of 1% BSA/TBS at 25° C. for 1 hr. The plate was washed with wash buffer (0.05% Tween-20 in TBS containing 1 mM CaCl₂ and 1 mM MgCl₂), and dilutions of humanized antibodies mixed with 1 nM soluble αvβ5 protein in TBS containing 1% BSA, 1 mM CaCl₂ and 1 mM MgCl₂ were added (50 μl/well) and incubated at 25° C. for 1 hr. The plate was washed 4 times with wash buffer in an automated plate washer and incubated sequentially with 50 μl/well of the anti-beta5 monoclonal antibody 15F11 (at 0.5 ug/mL) in for 1 hr at 25° C. in TBS containing 1% BSA, 1 mM CaCl₂ and 1 mM MgCl₂. After washing the plate 4 times with wash buffer, 100 μl/well of a 1:5000 dilution of a peroxidase-conjugated goat anti-mouse antibody in TBS containing 1% BSA, 1 mM CaCl₂ and 1 mM MgCl₂ were added and incubated for 1 hr at 25° C. Bound protein was detected using the TMB substrate and indicated by the absorbency measured at 450 nm.
as §1

[5] = target: T2, human αvβ5 expressed on BaF3 cells …; experiment: FACS on BaF3-hu αvβ5 cells
Method: FACS Binding Assay: Cells were washed one time in PBS, and then resuspended in FACS buffer (1×PBS, 1% BSA, 1 mM CaCl₂, and 1 mM MgCl₂). 1×10⁶ cells were then incubated on ice for 1 hr in FACS buffer containing the test antibody in a total volume of 50 μl. After incubation, the cells were washed two times with ice cold FACS buffer, resuspended in 50 μl of FACS buffer containing 3 μg/ml goat anti-mouse IgG AlexaFluor488 (Jackson ImmunoResearch), and incubated on ice for 30 min. The cells were then washed twice with ice cold FACS buffer and fixed in 1% PFA overnight. Cell aggregates were removed by filtering through 40 μm filter plates (Millipore) and binding of the labeled secondary antibody was monitored by flow cytometry using a FACS Calibur (BD Biosciences).
as §1

[6] = target: cynomolgus monkey αvβ5 expressed on BaF3 cells (cynomolgus monkey, UniProt A0A2K5WCD3 31-1048; A0A2K5UEB4 24-799); experiment: cell-based or functional assay
[7] = target: T2, human αvβ5 expressed on BaF3 cells …; experiment: cell-based or functional assay
[8] = target: T2, human αvβ5 expressed on BaF3 cells …; experiment: flow cytometry on BaF3 cells co-transfected with human αv and human β5
Method: The binding of the H4/L2 antibody (SEQ ID NOs.: 69 and 70) to αvβ5 expressed on the cell surface was determined using flow cytometry on BaF3 cells stably co-transfected with human αv and human β5 integrin subunits. BaF3 cells are a murine IL-3 dependent hematopoietic cell line of indeterminate origin. These cells endogenously express mouse alpha-V (as well as alpha-4, alpha-5, and beta-1 integrins) but no beta-5 or beta-6 integrin.
The H4/L2 antibody was added to cells in FACS Buffer (PBS, 1% BSA, 1 mM CaCl₂, 1 mM MgCl₂) for 30 minutes on ice. After washing, bound antibody was detected with an anti-human-Alexa Fluor® 488 secondary antibody. Cells fixed in 1% paraformaldehyde were collected on a FACS Calibur and mean fluorescence intensity was analyzed using FlowJo software.

T1 sequence (P06756 31-992 limits assumed, chain 1 of 2): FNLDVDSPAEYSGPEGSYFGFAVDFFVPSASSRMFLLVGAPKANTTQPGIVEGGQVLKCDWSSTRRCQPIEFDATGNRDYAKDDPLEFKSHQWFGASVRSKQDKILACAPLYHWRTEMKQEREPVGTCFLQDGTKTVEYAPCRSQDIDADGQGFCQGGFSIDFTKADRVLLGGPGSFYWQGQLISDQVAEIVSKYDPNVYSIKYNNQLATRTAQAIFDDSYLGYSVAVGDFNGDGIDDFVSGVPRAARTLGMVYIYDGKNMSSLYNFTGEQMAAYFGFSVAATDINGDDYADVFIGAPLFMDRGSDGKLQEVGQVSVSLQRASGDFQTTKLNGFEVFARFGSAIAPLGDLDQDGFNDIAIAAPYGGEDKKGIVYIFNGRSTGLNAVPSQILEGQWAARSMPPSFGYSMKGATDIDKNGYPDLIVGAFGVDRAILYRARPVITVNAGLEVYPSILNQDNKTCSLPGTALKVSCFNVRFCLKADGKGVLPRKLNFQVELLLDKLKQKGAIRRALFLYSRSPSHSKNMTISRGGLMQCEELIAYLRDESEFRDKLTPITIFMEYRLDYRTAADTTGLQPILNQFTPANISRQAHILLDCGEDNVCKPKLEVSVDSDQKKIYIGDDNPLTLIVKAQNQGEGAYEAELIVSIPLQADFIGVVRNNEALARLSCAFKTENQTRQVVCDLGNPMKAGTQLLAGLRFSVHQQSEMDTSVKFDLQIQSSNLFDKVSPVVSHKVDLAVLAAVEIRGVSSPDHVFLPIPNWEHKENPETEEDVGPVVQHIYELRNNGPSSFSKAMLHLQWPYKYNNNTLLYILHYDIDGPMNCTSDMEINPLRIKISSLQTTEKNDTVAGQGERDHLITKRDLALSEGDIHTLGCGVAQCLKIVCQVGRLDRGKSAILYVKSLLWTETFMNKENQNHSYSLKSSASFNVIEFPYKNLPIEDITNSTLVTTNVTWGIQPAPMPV
T1 sequence (P18084 24-719 limits assumed, chain 2 of 2): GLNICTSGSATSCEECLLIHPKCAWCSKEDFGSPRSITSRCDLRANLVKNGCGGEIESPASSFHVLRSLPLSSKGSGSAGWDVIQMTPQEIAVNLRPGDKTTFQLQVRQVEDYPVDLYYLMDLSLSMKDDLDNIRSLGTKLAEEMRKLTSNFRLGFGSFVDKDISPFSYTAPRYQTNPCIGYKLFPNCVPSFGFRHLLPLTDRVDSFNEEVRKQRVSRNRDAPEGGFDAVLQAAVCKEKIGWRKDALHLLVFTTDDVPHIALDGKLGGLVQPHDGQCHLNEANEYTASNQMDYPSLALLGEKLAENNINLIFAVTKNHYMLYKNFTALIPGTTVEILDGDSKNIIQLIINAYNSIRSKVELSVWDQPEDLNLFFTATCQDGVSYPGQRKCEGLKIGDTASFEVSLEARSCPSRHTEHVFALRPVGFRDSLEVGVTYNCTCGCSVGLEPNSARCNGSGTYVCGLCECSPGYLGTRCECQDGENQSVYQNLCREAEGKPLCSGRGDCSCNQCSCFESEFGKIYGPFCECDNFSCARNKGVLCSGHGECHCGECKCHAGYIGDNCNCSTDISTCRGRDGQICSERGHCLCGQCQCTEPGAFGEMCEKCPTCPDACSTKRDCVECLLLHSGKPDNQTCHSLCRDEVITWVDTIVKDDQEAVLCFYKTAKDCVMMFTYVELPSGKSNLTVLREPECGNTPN

B1: ALULA-H4/L2-IgG4.P(S228P)/IgG1(N297Q) (antibody, V domains shown)
VH: EVQVVQSGGGLVKPGESLRLSCKASGYTFTSYWMHWVKQAPGKGLEWVGAIYPGNSDTSYNQKFKGKFTISADTSPNTAYLQMNSLKTEDTAVYYCTTTTYGYDWFAYWGQGTLVTVSS
VL: NIQMTQSPSSLSASVGDRVTMSCKSSQSVLYSSNQKNYLAWYQQKPGKSPKLLIYWASTRESGVPDRFTGSGSGTDFTLTISSLQPEDFATYYCHQYLSSLTFGQGTKLEIKR
notes: Hybrid aglycosylated IgG4.P (S228P)/IgG1 (N297Q) heavy chain, human kappa light chain; also called VH4/VL2 (Agly-IgG4P/G1); H4/L2 antibody
[1]
  EC50: ~0.065 nM
[2]
  Kd: 0.08 nM
[3]
  Fold chg. (IC50 against mouse chimeric ALULA): 1 fold
  IC50: 1.84 nM
[4]
  Fold chg. (IC50 against mouse chimeric ALULA): 0.7 fold
  IC50: 1.06 nM
[5]
  EC50: 2.92 nM
  Fold chg. (EC50 against mouse chimeric ALULA): 0.6 fold
[6]
  BaF3-cyno αvβ5 Cell adhesion to vitronectin (IC50, nM): 0.32 nM
  BaF3-cyno αvβ5 Cell adhesion to vitronectin, Fold chg. (against mouse chimeric ALULA): 0.5 fold
[7]
  BaF3-hu αvβ5 Cell adhesion to vitronectin (IC50, nM): 0.1 nM
  BaF3-hu αvβ5 Cell adhesion to vitronectin, Fold chg. (against mouse chimeric ALULA): 0.6 fold
[8]
  EC50: 3 nM

Source: patent publication US20170362324A1 (Biogen, published 2017)
